Patent US9957297B2, “Template-fixed peptidomimetics as inhibitors of FPR1” (POLYPHOR AG, priority 2011, dated 2018)
Bridges are numbered along the chain shown (N, C = ends). [ ]: non-standard residue; d: D form.

Biological target: T1, Formyl-Peptide Receptor 1 (UniProt P21462 1-350, limits assumed)
T1 sequence (looked up): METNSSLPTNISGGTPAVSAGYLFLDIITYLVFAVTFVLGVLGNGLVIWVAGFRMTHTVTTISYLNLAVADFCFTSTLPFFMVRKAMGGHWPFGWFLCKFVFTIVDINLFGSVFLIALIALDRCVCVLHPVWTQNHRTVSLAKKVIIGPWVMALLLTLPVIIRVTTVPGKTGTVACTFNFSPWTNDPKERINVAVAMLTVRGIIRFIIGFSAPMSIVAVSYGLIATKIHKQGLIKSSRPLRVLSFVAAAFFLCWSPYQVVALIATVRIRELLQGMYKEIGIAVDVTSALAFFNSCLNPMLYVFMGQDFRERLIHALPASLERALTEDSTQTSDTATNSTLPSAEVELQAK
Experiment: cell-based or functional assay

B1: cyclo(-Tyr-His-Ala-Cys-Phe-Gly-^DPro-Trp-Thr-Ile-Cys-Tyr-Gln-Lys-^DPro-Pro-) (peptide)
peptide: cyclo(YHACFG[dP]WTICYQK[dP]P)
modifications: disulfide 4-11
SMILES: CC[C@H](C)[C@@H]1NC(=O)[C@H]([C@@H](C)O)NC(=O)[C@H](Cc2c[nH]c3ccccc23)NC(=O)[C@H]2CCCN2C(=O)CNC(=O)[C@H](Cc2ccccc2)NC(=O)[C@@H]2CSSC[C@H](NC1=O)C(=O)N[C@@H](Cc1ccc(O)cc1)C(=O)N[C@@H](CCC(N)=O)C(=O)N[C@@H](CCCCN)C(=O)N1CCC[C@@H]1C(=O)N1CCC[C@H]1C(=O)N[C@@H](Cc1ccc(O)cc1)C(=O)N[C@@H](Cc1c[nH]cn1)C(=O)N[C@@H](C)C(=O)N2
- β-Arrestin IC50: 166 nM

B2: cyclo(-Tyr-His-Ala-Cys-Tyr-Gly-^DPro-Trp-Thr-Ile-Cys-Tyr-Gln-Lys-^DPro-Pro-) (peptide)
peptide: cyclo(YHACYG[dP]WTICYQK[dP]P)
modifications: disulfide 4-11
SMILES: CC[C@H](C)[C@@H]1NC(=O)[C@H]([C@@H](C)O)NC(=O)[C@H](Cc2c[nH]c3ccccc23)NC(=O)[C@H]2CCCN2C(=O)CNC(=O)[C@H](Cc2ccc(O)cc2)NC(=O)[C@@H]2CSSC[C@H](NC1=O)C(=O)N[C@@H](Cc1ccc(O)cc1)C(=O)N[C@@H](CCC(N)=O)C(=O)N[C@@H](CCCCN)C(=O)N1CCC[C@@H]1C(=O)N1CCC[C@H]1C(=O)N[C@@H](Cc1ccc(O)cc1)C(=O)N[C@@H](Cc1c[nH]cn1)C(=O)N[C@@H](C)C(=O)N2
- β-Arrestin IC50: 184 nM

B3: cyclo(-Glu-His-Ala-Cys-Trp-Gly-^DPro-Trp-Thr-Ile-Cys-Tyr-Gln-Lys-^DPro-Pro-) (peptide)
peptide: cyclo(EHACWG[dP]WTICYQK[dP]P)
modifications: disulfide 4-11
SMILES: CC[C@H](C)[C@@H]1NC(=O)[C@H]([C@@H](C)O)NC(=O)[C@H](Cc2c[nH]c3ccccc23)NC(=O)[C@H]2CCCN2C(=O)CNC(=O)[C@H](Cc2c[nH]c3ccccc23)NC(=O)[C@@H]2CSSC[C@H](NC1=O)C(=O)N[C@@H](Cc1ccc(O)cc1)C(=O)N[C@@H](CCC(N)=O)C(=O)N[C@@H](CCCCN)C(=O)N1CCC[C@@H]1C(=O)N1CCC[C@H]1C(=O)N[C@@H](CCC(=O)O)C(=O)N[C@@H](Cc1c[nH]cn1)C(=O)N[C@@H](C)C(=O)N2
- β-Arrestin IC50: 131 nM

B4: cyclo(-Thr-His-Ala-Cys-Trp-Gly-^DPro-Trp-Thr-Ile-Cys-Tyr-Gln-Lys-^DPro-Pro-) (peptide)
peptide: cyclo(THACWG[dP]WTICYQK[dP]P)
modifications: disulfide 4-11
SMILES: CC[C@H](C)[C@@H]1NC(=O)[C@H]([C@@H](C)O)NC(=O)[C@H](Cc2c[nH]c3ccccc23)NC(=O)[C@H]2CCCN2C(=O)CNC(=O)[C@H](Cc2c[nH]c3ccccc23)NC(=O)[C@@H]2CSSC[C@H](NC1=O)C(=O)N[C@@H](Cc1ccc(O)cc1)C(=O)N[C@@H](CCC(N)=O)C(=O)N[C@@H](CCCCN)C(=O)N1CCC[C@@H]1C(=O)N1CCC[C@H]1C(=O)N[C@@H]([C@@H](C)O)C(=O)N[C@@H](Cc1c[nH]cn1)C(=O)N[C@@H](C)C(=O)N2
- β-Arrestin IC50: 294 nM

B5: cyclo(-His-His-Ala-Cys-Trp-Gly-^DPro-Trp-Thr-Ile-Cys-Tyr-Gln-Lys-^DPro-Pro-) (peptide)
peptide: cyclo(HHACWG[dP]WTICYQK[dP]P)
modifications: disulfide 4-11
SMILES: CC[C@H](C)[C@@H]1NC(=O)[C@H]([C@@H](C)O)NC(=O)[C@H](Cc2c[nH]c3ccccc23)NC(=O)[C@H]2CCCN2C(=O)CNC(=O)[C@H](Cc2c[nH]c3ccccc23)NC(=O)[C@@H]2CSSC[C@H](NC1=O)C(=O)N[C@@H](Cc1ccc(O)cc1)C(=O)N[C@@H](CCC(N)=O)C(=O)N[C@@H](CCCCN)C(=O)N1CCC[C@@H]1C(=O)N1CCC[C@H]1C(=O)N[C@@H](Cc1c[nH]cn1)C(=O)N[C@@H](Cc1c[nH]cn1)C(=O)N[C@@H](C)C(=O)N2
- β-Arrestin IC50: 342 nM

B6: cyclo(-Ala-His-Ala-Cys-Trp-Gly-^DPro-Trp-Thr-Ile-Cys-Tyr-Gln-Lys-^DPro-Pro-) (peptide)
peptide: cyclo(AHACWG[dP]WTICYQK[dP]P)
modifications: disulfide 4-11
SMILES: CC[C@H](C)[C@@H]1NC(=O)[C@H]([C@@H](C)O)NC(=O)[C@H](Cc2c[nH]c3ccccc23)NC(=O)[C@H]2CCCN2C(=O)CNC(=O)[C@H](Cc2c[nH]c3ccccc23)NC(=O)[C@@H]2CSSC[C@H](NC1=O)C(=O)N[C@@H](Cc1ccc(O)cc1)C(=O)N[C@@H](CCC(N)=O)C(=O)N[C@@H](CCCCN)C(=O)N1CCC[C@@H]1C(=O)N1CCC[C@H]1C(=O)N[C@@H](C)C(=O)N[C@@H](Cc1c[nH]cn1)C(=O)N[C@@H](C)C(=O)N2
- β-Arrestin IC50: 404 nM

B7: cyclo(-Lys-His-Ala-Cys-His-Gly-^DPro-Trp-Thr-Ile-Cys-Tyr-Gln-Lys-^DPro-Pro-) (peptide)
peptide: cyclo(KHACHG[dP]WTICYQK[dP]P)
modifications: disulfide 4-11
SMILES: CC[C@H](C)[C@@H]1NC(=O)[C@H]([C@@H](C)O)NC(=O)[C@H](Cc2c[nH]c3ccccc23)NC(=O)[C@H]2CCCN2C(=O)CNC(=O)[C@H](Cc2c[nH]cn2)NC(=O)[C@@H]2CSSC[C@H](NC1=O)C(=O)N[C@@H](Cc1ccc(O)cc1)C(=O)N[C@@H](CCC(N)=O)C(=O)N[C@@H](CCCCN)C(=O)N1CCC[C@@H]1C(=O)N1CCC[C@H]1C(=O)N[C@@H](CCCCN)C(=O)N[C@@H](Cc1c[nH]cn1)C(=O)N[C@@H](C)C(=O)N2
- β-Arrestin IC50: 590 nM

B8: cyclo(-His-Tyr-Ala-Cys-Trp-Gly-^DPro-Trp-Thr-Ile-Cys-Tyr-Gln-Lys-^DPro-Pro-) (peptide)
peptide: cyclo(HYACWG[dP]WTICYQK[dP]P)
modifications: disulfide 4-11
SMILES: CC[C@H](C)[C@@H]1NC(=O)[C@H]([C@@H](C)O)NC(=O)[C@H](Cc2c[nH]c3ccccc23)NC(=O)[C@H]2CCCN2C(=O)CNC(=O)[C@H](Cc2c[nH]c3ccccc23)NC(=O)[C@@H]2CSSC[C@H](NC1=O)C(=O)N[C@@H](Cc1ccc(O)cc1)C(=O)N[C@@H](CCC(N)=O)C(=O)N[C@@H](CCCCN)C(=O)N1CCC[C@@H]1C(=O)N1CCC[C@H]1C(=O)N[C@@H](Cc1c[nH]cn1)C(=O)N[C@@H](Cc1ccc(O)cc1)C(=O)N[C@@H](C)C(=O)N2
- β-Arrestin IC50: 735 nM

B9: cyclo(-Tyr-His-Lys-Cys-His-Gly-^DPro-Trp-Thr-Ile-Cys-Tyr-Glu-Lys-^DPro-Glu-) (peptide)
peptide: cyclo(YHKCHG[dP]WTICYEK[dP]E)
modifications: disulfide 4-11
SMILES: CC[C@H](C)[C@@H]1NC(=O)[C@H]([C@@H](C)O)NC(=O)[C@H](Cc2c[nH]c3ccccc23)NC(=O)[C@H]2CCCN2C(=O)CNC(=O)[C@H](Cc2c[nH]cn2)NC(=O)[C@@H]2CSSC[C@H](NC1=O)C(=O)N[C@@H](Cc1ccc(O)cc1)C(=O)N[C@@H](CCC(=O)O)C(=O)N[C@@H](CCCCN)C(=O)N1CCC[C@@H]1C(=O)N[C@@H](CCC(=O)O)C(=O)N[C@@H](Cc1ccc(O)cc1)C(=O)N[C@@H](Cc1c[nH]cn1)C(=O)N[C@@H](CCCCN)C(=O)N2
- β-Arrestin IC50: 169 nM

B10: cyclo(-Tyr-His-Ala-Cys-His-Gly-^DPro-Trp-Thr-Ile-Cys-Tyr-Glu-Lys-^DPro-Pro-) (peptide)
peptide: cyclo(YHACHG[dP]WTICYEK[dP]P)
modifications: disulfide 4-11
SMILES: CC[C@H](C)[C@@H]1NC(=O)[C@H]([C@@H](C)O)NC(=O)[C@H](Cc2c[nH]c3ccccc23)NC(=O)[C@H]2CCCN2C(=O)CNC(=O)[C@H](Cc2c[nH]cn2)NC(=O)[C@@H]2CSSC[C@H](NC1=O)C(=O)N[C@@H](Cc1ccc(O)cc1)C(=O)N[C@@H](CCC(=O)O)C(=O)N[C@@H](CCCCN)C(=O)N1CCC[C@@H]1C(=O)N1CCC[C@H]1C(=O)N[C@@H](Cc1ccc(O)cc1)C(=O)N[C@@H](Cc1c[nH]cn1)C(=O)N[C@@H](C)C(=O)N2
- β-Arrestin IC50: 189 nM

B11: cyclo(-Tyr-His-Ala-Cys-Trp-Gly-^DPro-Trp-Thr-Ile-Cys-Tyr-Thr-Lys-^DPro-Pro-) (peptide)
peptide: cyclo(YHACWG[dP]WTICYTK[dP]P)
modifications: disulfide 4-11
SMILES: CC[C@H](C)[C@@H]1NC(=O)[C@H]([C@@H](C)O)NC(=O)[C@H](Cc2c[nH]c3ccccc23)NC(=O)[C@H]2CCCN2C(=O)CNC(=O)[C@H](Cc2c[nH]c3ccccc23)NC(=O)[C@@H]2CSSC[C@H](NC1=O)C(=O)N[C@@H](Cc1ccc(O)cc1)C(=O)N[C@@H]([C@@H](C)O)C(=O)N[C@@H](CCCCN)C(=O)N1CCC[C@@H]1C(=O)N1CCC[C@H]1C(=O)N[C@@H](Cc1ccc(O)cc1)C(=O)N[C@@H](Cc1c[nH]cn1)C(=O)N[C@@H](C)C(=O)N2
- β-Arrestin IC50: 202 nM

B12: cyclo(-Tyr-His-Ala-Cys-Trp-Gly-^DPro-Trp-Thr-Ile-Cys-Tyr-Ala-Lys-^DPro-Pro-) (peptide)
peptide: cyclo(YHACWG[dP]WTICYAK[dP]P)
modifications: disulfide 4-11
SMILES: CC[C@H](C)[C@@H]1NC(=O)[C@H]([C@@H](C)O)NC(=O)[C@H](Cc2c[nH]c3ccccc23)NC(=O)[C@H]2CCCN2C(=O)CNC(=O)[C@H](Cc2c[nH]c3ccccc23)NC(=O)[C@@H]2CSSC[C@H](NC1=O)C(=O)N[C@@H](Cc1ccc(O)cc1)C(=O)N[C@@H](C)C(=O)N[C@@H](CCCCN)C(=O)N1CCC[C@@H]1C(=O)N1CCC[C@H]1C(=O)N[C@@H](Cc1ccc(O)cc1)C(=O)N[C@@H](Cc1c[nH]cn1)C(=O)N[C@@H](C)C(=O)N2
- β-Arrestin IC50: 278 nM

B13: cyclo(-Tyr-His-Ala-Cys-His-Gly-^DPro-Trp-Thr-Ile-Cys-Tyr-Thr-Lys-^DPro-Pro-) (peptide)
peptide: cyclo(YHACHG[dP]WTICYTK[dP]P)
modifications: disulfide 4-11
SMILES: CC[C@H](C)[C@@H]1NC(=O)[C@H]([C@@H](C)O)NC(=O)[C@H](Cc2c[nH]c3ccccc23)NC(=O)[C@H]2CCCN2C(=O)CNC(=O)[C@H](Cc2c[nH]cn2)NC(=O)[C@@H]2CSSC[C@H](NC1=O)C(=O)N[C@@H](Cc1ccc(O)cc1)C(=O)N[C@@H]([C@@H](C)O)C(=O)N[C@@H](CCCCN)C(=O)N1CCC[C@@H]1C(=O)N1CCC[C@H]1C(=O)N[C@@H](Cc1ccc(O)cc1)C(=O)N[C@@H](Cc1c[nH]cn1)C(=O)N[C@@H](C)C(=O)N2
- β-Arrestin IC50: 598 nM

B14: cyclo(-Tyr-His-Ala-Cys-Trp-Gly-^DAla-Trp-Thr-Ile-Cys-Tyr-Gln-Lys-^DPro-Pro-) (peptide)
peptide: cyclo(YHACWG[dA]WTICYQK[dP]P)
modifications: disulfide 4-11
SMILES: CC[C@H](C)[C@@H]1NC(=O)[C@H]([C@@H](C)O)NC(=O)[C@H](Cc2c[nH]c3ccccc23)NC(=O)[C@@H](C)NC(=O)CNC(=O)[C@H](Cc2c[nH]c3ccccc23)NC(=O)[C@@H]2CSSC[C@H](NC1=O)C(=O)N[C@@H](Cc1ccc(O)cc1)C(=O)N[C@@H](CCC(N)=O)C(=O)N[C@@H](CCCCN)C(=O)N1CCC[C@@H]1C(=O)N1CCC[C@H]1C(=O)N[C@@H](Cc1ccc(O)cc1)C(=O)N[C@@H](Cc1c[nH]cn1)C(=O)N[C@@H](C)C(=O)N2
- β-Arrestin IC50: 213 nM
